Reference: article PMC5678105, “Engineering DNA Backbone Interactions Results in TALE Scaffolds with Enhanced 5-Methylcytosine Selectivity”

B1: 9a_26 5mC (dsDNA)
DNA 1: GGCCAGCCAGTCAGCCGAAGGCTCCATGCTGCTCCCCGCCGCCGGC
DNA 2: GCCGGCGGCGGGGAGCAGCATGGAGCCTTCGGCTGACTGGCTGGCC
modifications: 5mC at strand 1 nt 16 (site position 5, T = 0)
B2: 9a_26 C (dsDNA)
DNA 1: B1 DNA 1
DNA 2: B1 DNA 2

What was measured:
GFP-TALE_9a_26 WT [1] = molecular target: T1, GFP-TALE_9a_26 WT (Xanthomonas axonopodis scaffold …); experiment: EMSA; 5mC vs C DNA; EMSA: 20 mM Tris pH 8, 50 mM NaCl, 5 mM MgCl2, 5% glycerol; 0.1 pmol TALE + 0.5 pmol duplex in 10 uL; RT 30 min then ice 30 min; gel 0.5x TAE 4 C; GFP readout; conditions: protein: recombinant; tags: N-terminal GFP; C-terminal His6; blunt
GFP-TALE_9a_26 WT [2] = molecular target: T1, GFP-TALE_9a_26 WT; experiment: EMSA; EMSA: 20 mM Tris pH 8, 50 mM NaCl, 5 mM MgCl2, 5% glycerol; 0.1 pmol TALE + 0.5 pmol duplex in 10 uL; RT 30 min then ice 30 min; gel 0.5x TAE 4 C; GFP readout; conditions: protein: recombinant; tags: N-terminal GFP; C-terminal His6; blunt

| Binder | binding signal (GFP-TALE_9a_26 WT [1]) | binding result (GFP-TALE_9a_26 WT [2]) |
| --- | --- | --- |
| B1 | 2 fold C over 5mC selectivity |  |
| B2 |  | binds |
